Results: paper PMC5912465, “The N-terminal domain of a tick evasin is critical for chemokine binding and neutralization and confers specific binding activity to other evasins” (The Journal of Biological Chemistry, 2018)

Columns and labels:
Settings in all cases: both partners purified
[1] = target: T1, N-terminally tagged P672 (P672_RHIPU), glycosylated (Rhipicephalus pulchellus, UniProt L7MC74 22-125); experiment: BLI
T1 construct: source: HEK293F, transiently transfected, purified from culture supernatant (nickel IMAC, size exclusion chromatography)
T1 sequence: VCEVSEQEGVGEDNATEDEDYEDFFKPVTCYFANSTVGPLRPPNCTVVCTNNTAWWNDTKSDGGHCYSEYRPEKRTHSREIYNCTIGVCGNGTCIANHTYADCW

[2] = target: T2, partially deglycosylated N-terminally tagged P672 (Rhipicephalus pulchellus, UniProt L7MC74 22-125); experiment: BLI
T2 sequence: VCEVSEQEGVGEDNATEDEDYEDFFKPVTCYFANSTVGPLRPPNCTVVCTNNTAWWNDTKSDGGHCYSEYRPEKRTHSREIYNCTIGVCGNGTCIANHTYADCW

[3] = target: T3, P672 with residues Val-1—Thr-16 truncated (Rhipicephalus pulchellus, UniProt L7MC74 38-125); experiment: BLI
T3 sequence: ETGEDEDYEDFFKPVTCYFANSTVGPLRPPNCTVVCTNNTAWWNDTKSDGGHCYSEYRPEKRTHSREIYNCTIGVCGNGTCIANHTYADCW

[4] = target: T2, partially deglycosylated N-terminally …; experiment: native MS

B1: CCL11 (ligand)
chain: not shown
[1]
  Kd: < 10 nM

B2: CCL14 (ligand, human, UniProt Q16627 20-93, looked up)
chain: TKTESSSRGPYHPSECCFTYTTYKIPRQRIMDYYETNSQCSKPGIVFITKRGHSVCTNPSDKWVQDYIKDMKEN
[1]
  Kd: < 10 nM

B3: CCL3L1 (ligand, human, UniProt P16619 24-93, looked up)
chain: APLAADTPTACCFSYTSRQIPQNFIADYFETSSQCSKPSVIFLTKRGRQVCADPSEEWVQKYVSDLELSA
[1]
  binding result: binds

B4: CCL23 (ligand, human, UniProt P55773 22-120, looked up)
chain: RVTKDAETEFMMSKLPLENPVLLDRFHATSADCCISYTPRSIPCSLLESYFETNSECSKPGVIFLTKKGRRFCANPSDKQVQVCMRMLKLDTRIKTRKN
[1]
  Kd: < 10 nM

B5: CCL18 (ligand, human, UniProt P55774 21-89, looked up)
chain: AQVGTNKELCCLVYTSWQIPQKFIVDYSETSPQCPKPGVILLTKRGRQICADPNKKWVQKYISDLKLNA
[1]
  Kd: < 10 nM

B6: CCL16 (ligand, human, UniProt O15467 24-120, looked up)
chain: QPKVPEWVNTPSTCCLKYYEKVLPRRLVVGYRKALNCHLPAIIFVTKRNREVCTNPNDDWVQEYIKDPNLPLLPTRNLSTVKIITAKNGQPQLLNSQ
[1]
  binding result: binds

B7: CCL3 (ligand, human, UniProt P10147 24-92, looked up)
chain: SLAADTPTACCFSYTSRQIPQNFIADYFETSSQCSKPGVIFLTKRSRQVCADPSEEWVQKYVSDLELSA
[1]
  binding result: binds

B8: CCL8 (human chemokine panel) (ligand, UniProt P80075 24-99, looked up)
chain: QPDSVSIPITCCFNVINRKIPIQRLESYTRITNIQCPKEAVIFKTKRGKEVCADPKERWVRDSMKHLDQIFQNLKP
notes: also called MCP-2
[2]
  Kd: 72.5 nM
[3]
  Kd: 30.4 nM

B9: human CCL8 (residues Gln-24 to Pro-99), expressed in E. coli (ligand, UniProt P80075 24-99, looked up)
chain: QPDSVSIPITCCFNVINRKIPIQRLESYTRITNIQCPKEAVIFKTKRGKEVCADPKERWVRDSMKHLDQIFQNLKP
notes: also called Purified CCL8
[4]
  stoichiometry N: 1

B10: CCL7 (ligand)
chain: not shown
notes: also called MCP-3
[1]
  binding result: binds

B11: CCL1 (ligand, human, UniProt P22362 24-96, looked up)
chain: KSMQVPFSRCCFSFAEQEIPLRAILCYRNTSSICSNEGLIFKLKRGKEACALDTVGWVQRHRKMLRHCPSKRK
[1]
  binding result: binds
